Reference: PMC7979924 (2021)

T1: Lin28-CSD (32–136 aa.) (Homo sapiens (Human), UniProt Q9H9Z2)
T1 chain: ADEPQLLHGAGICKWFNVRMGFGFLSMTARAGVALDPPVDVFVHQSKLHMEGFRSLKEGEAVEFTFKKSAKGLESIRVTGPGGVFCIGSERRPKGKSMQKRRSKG


Experiments:
YB-1-CSD (1–180 aa.) = YB-1-CSD (1–180 aa.) (Homo sapiens (Human), UniProt P67809); assay: EMSA; in presence of ssDNA (M13, stem-loop or C20); tests mixing/cooperative co-association on nucleic acid, not direct binding
Lin28-CSD (32–136 aa.) = biological target: T1, Lin28-CSD (32–136 aa.); assay: NMR 1H-15N HSQC (peak heights); in presence of 20-nt poly(C) ssDNA; tests co-association on nucleic acid, not direct protein-protein binding

Sequence of YB-1-CSD (1–180 aa.) (P67809 1-180): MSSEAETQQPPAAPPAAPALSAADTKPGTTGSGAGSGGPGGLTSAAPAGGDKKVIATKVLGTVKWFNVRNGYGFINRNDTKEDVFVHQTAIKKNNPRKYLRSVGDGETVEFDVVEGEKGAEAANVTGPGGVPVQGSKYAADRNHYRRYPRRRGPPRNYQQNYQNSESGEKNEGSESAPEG

binding result (YB-1-CSD (1–180 aa.)) | binding result (Lin28-CSD (32–136 aa.)) | Binder
no binding | – | TDP43 (RRM 1–2, 101–277aa.) (protein) QKTSDLIVLGLPWKTTEQDLKEYFSTFGEVLMVQVKKDLKTGHSKGFGFVRFTEYETQVKVMSQRHMIDGRWCDCKLPNSKQSQDEPLRSRKVFVGRCTEDMTEDELREFFSQYGDVMDVFIPKPFRAFAFVTFADDQIAQSLCGEDLIIKGISVHISNAEPKHNSNRQLERSGRFG
– | no binding | TDP-43 RRM2 (176–277aa.) (protein) KLPNSKQSQDEPLRSRKVFVGRCTEDMTEDELREFFSQYGDVMDVFIPKPFRAFAFVTFADDQIAQSLCGEDLIIKGISVHISNAEPKHNSNRQLERSGRFG
no binding | – | FUS (RRM, 165–385aa.) (protein) SGGGGGGGGGGNYGQDQSSMSSGGGSGGGYGNQDQSGGGGSGGYGQQDRGGRGRGGSGGGGGGGGGGYNRSSGGYEPRGRGGGRGGRGGMGGSDRGGFNKFGGPRDQGSRHDSEQDNSDNNTIFVQGLGENVTIESVADYFKQIGIIKTNKKTGQPMINLYTDRETGKLKGEATVSFDDPPSAKAAIDWFDGKEFSGNPIKVSFATRRADFNRGGGNGRGG
